Source: patent US20210269501A1

molecular target: NKG2D ligands (NKG2DLs) on human TNBC cell lines; experiment: cell-based or functional assay

Row | Substance | cytotoxicity (overnight luminescence based assay, MDA-MB-231 fLuc)
1 | NKG2D_41BB_CD3Zeta CAR (receptor) | > 60%
2 | NKG2D_CD3Zeta CAR (receptor) | > 60%
3 | NKG2D_CD27_CD3Zeta CAR (receptor) | > 60%
